The source of these data is patent US20240409663A1 (CONCEPT TO MEDICINE BIOTECH, published 2024).

B1: 52H5D3B8-6#-VH3+VL3 (antibody, V domains shown)
VH: QVQLVQSGAEVKKPGASVKVSCKALGYTFTDYEMHWVKQAPGQGLEWIGAIHPGSGGTAYNQKFKGRVTLTADTSTSTVYMELSSLRSEDTAVYYCTRYYSYAYWGQGTLVTVSS
VL: DIVMTQTPLSLSVTPGQPASISCRSSQSLVHSNGNTYLQWYLQKPGQSPKLLIYKVSNRFSGVPDRFSGSGSGTDFTLKISRVEAEDVGVYYCFQSIHVPYTFGGGTKLEIK
notes: humanized
B2: 52H5D3B8-6#-VH3+VL4 (antibody, V domains shown)
VH: B1 VH
VL: B1 VL with Y92F
notes: humanized
B3: 52H5D3B8-6#-VH4+VL4 (antibody, V domains shown)
VH: B1 VH with V68A, L70M, T74K, S75F
VL: B1 VL with Y92F
notes: humanized
B4: 52H5D3B8-6#-VH4+VL3 (antibody, V domains shown)
VH: B1 VH with V68A, L70M, T74K, S75F
VL: B1 VL
notes: humanized
B5: 52H5D3B8-6#-VH4+VL1 (antibody, V domains shown)
VH: B1 VH with V68A, L70M, T74K, S75F
VL: B1 VL with K50Q
notes: humanized
B6: 52H5D3B8-6#-VH4+VL2 (antibody, V domains shown)
VH: B1 VH with V68A, L70M, T74K, S75F
VL: B1 VL with K50Q, Y92F
notes: humanized
B7: Hu 52H5D3B8-2 (antibody, V domains shown)
VH: EVQLVQSGAEVKKPGASVKVSCKASGYTFTDYEMHWVRQAPGQGLEWMGAIHPGSGGTAYNQKFKGRVTMTRDTSISTAYMELSRLRSDDTAVYYCARFYSYAYWGQGTLVTVSS
VL: B1 VL with I2V, K50Q, Y92F, F94S, L109V
notes: humanized 52H5D3B8; also called 52H5D3B8 VH0 + VL1
B8: Hu 52H5D3B8-9 (antibody, V domains shown)
VH: B7 VH with M48I, M70L, R72A, T74K, A97T
VL: B1 VL with I2V, K50Q, F94S, L109V
notes: humanized 52H5D3B8; also called 52H5D3B8 VH4 + VL0
B9: Hu 52H5D3B8-5 (antibody, V domains shown)
VH: B7 VH with R72A, A97T
VL: B1 VL with I2V, K50Q, F94S, L109V
notes: humanized 52H5D3B8; also called 52H5D3B8 VH2 + VL0
B10: Hu 52H5D3B8-6 (antibody, V domains shown)
VH: B7 VH with R72A, A97T
VL: B1 VL with I2V, K50Q, Y92F, F94S, L109V
notes: humanized 52H5D3B8; also called 52H5D3B8 VH2 + VL1
B11: Hu 52H5D3B8-4 (antibody, V domains shown)
VH: B7 VH with A97T
VL: B1 VL with I2V, K50Q, Y92F, F94S, L109V
notes: humanized 52H5D3B8; also called 52H5D3B8 VH1 + VL1
B12: 18C1D9 chimeric mAb (antibody, V domains shown)
VH: QVQLQQSGAELVRPGASVTLSCKASGYTFSDYEMHWVKQTPVHGLEWIGAIDPETGGTAYNQKFKGKATLTADKSSSTAYMELRSLTSEDSAVYYCTRYYSYAYWGQGTLVTVSA
VL: DVVMTQSPLSLPVSLGDQASISCRSRQSLVHSNGNTYLQWYLQKPGQSPKLLIYKVSNRFSGVPDRFSGSGSGTDFTLKISRVEAEDLGVYFCFQSIHVPYTFGGGTKLEKK
B13: 171F9C5 chimeric mAb (antibody, V domains shown)
VH: B12 VH with S30T, M34I, G56D, G57N, N61S, T69I
VL: DVVMTQTPLSLPVSLGDQASISCRSSQSPVHRNGNTYLHWYLQKPGQSPKLLIFKVSNRFSGVPDRFSGSGSGTDFTLKISRVAAEDLGVYFCSQTTHVPYTFGGGTKLEIK
B14: 163E7D12 chimeric mAb (antibody, V domains shown)
VH: B12 VH with S30T, D52G, G57S, K63R, T69I, L70V, Y102F
VL: B12 VL with S7T, D17G, R26S, Y54F, K111I
B15: 172B4E9 chimeric mAb (antibody, V domains shown)
VH: QVQLQQSGAELVRPGASVTLSCKASGYTFTDYEIHWVKQTPVHGLEWIGAIDPATGDTAYTQKFKGKAILTADTSSNTVYMELRGLTSEDSAVHFCTRFYSYAYWGQGTLVTVSA
VL: B13 VL with P29L, R32T, N35H, H39Q, P45S, K50R, T77K, A84E, T96S
B16: 152E9F7 chimeric mAb (antibody, V domains shown)
VH: B15 VH with A54E, T74K, G85S, H94Y, F95Y
VL: B12 VL with S7T, R26S, S32T, N35H, P45S, F94S, I97T, K111I

Residue numbers refer to the chain shown, from its start.

One test concerns the target T1, human GPC3 on cells (human, UniProt P51654 25-554).
T1 construct: whole, on cells; over-expressed on CHOK1 cells or endogenous on HEPG2, Hep3B and Huh-7 hepatocellular carcinoma cells; the cell line is named under assay; also called GPC3-CHOK1 cells; human GPC3 over-expressed CHOK1 cells
Briefly: FACS, HEPG2 cells. How it is done:
(§1) To evaluate the antigen binding property, the humanized antibodies were analyzed for their binding to human GPC3 over-expressed CHOK1 cells, HEPG2 cells, Hep3B cells and Huh-7 cells by FACS. Briefly, GPC3-CHOK1 cells, HEPG2 cells, Hep3B cells and Huh-7 cells were firstly incubated with Fc blocking reagent at 4° C. for 15 mins. Cells were washed by FACS buffer and divided to each well with 4-fold serially diluted humanized antibodies starting at 10 μg/mL at 4° C. for 60 mins. Cells were washed by FACS buffer and fixed with 2% PFA at RT for 15 mins. […] The 16 humanized antibodies were separated into two plates.
Take B1: the EC50 is 0.0426 µg/mL.
On the same count and under the same terms, under B2 stands 0.0422 µg/mL.
B3: a half-maximal effect (EC50) was put at 0.0367 µg/mL.
Still for that read-out and setting: the same measure for B4: 0.0391 µg/mL; for B5: 0.04 µg/mL; for B6: 0.0435 µg/mL.

Another test has as its target T1, human GPC3 on cells. Briefly: FACS, GPC3-CHOK1 cells. On the procedure:
as §1
B1 showed an EC50 of 0.0408 µg/mL.
On the same count and under the same terms, the same measure for B2: 0.0419 µg/mL; for B3: 0.0367 µg/mL; for B4: 0.0379 µg/mL.
Still for that read-out and setting: under B5 stands 0.0387 µg/mL; under B6, 0.0425 µg/mL.

The target of a further test is T1, human GPC3 on cells. As to the kind of experiment: FACS, Huh-7 cells. On the procedure: as §1
B1 returned an EC50 of 0.0351 µg/mL.
On the same count and under the same terms, under B2 stands 0.0322 µg/mL; under B3, 0.0259 µg/mL.
On the same count and under the same terms, the same measure for B4: 0.0287 µg/mL.
Same read-out and setting: the same measure for B5: 0.0306 µg/mL; for B6: 0.0326 µg/mL.

The target of a further test is T2, human GPC3-his tag protein (human, UniProt P51654 25-559, limits assumed).
T2 construct: recombinant soluble antigen used as analyte in all Biacore runs; also called recombinant GPC3 protein; rhGPC3-His; not shown: His tag
As to the kind of experiment: SPR Biacore, mAb captured on CM5, GPC3-his dilution series (full kinetics). On the procedure:
The binding of the humanized antibodies to recombinant GPC3 protein (human GPC3-his tag) was tested by Biacore using a capture method. 52H5D3B8-6 #-V+VL, 52H5D3B8-6 #-VH1+VL1, 52H5D3B8-6 #-VH1+VL3, 52H5D3B8-6 #-V1+VL4, 52H5D3B8-6 #-VH2+VL4, 52H5D3B8-6 #-VH3+VL1, 52H5D3B8-6 #-VH3+VL3 mAbs were captured using CM5 sensor chip. A serial dilution of human GPC3-his tag protein was injected over captured antibody for 2 mins at a flow rate of […]. The antigen was allowed to dissociate for 360 s. All the experiments were carried out on a Biacore T200.
As to B1, the Kd worked out at 0.898 nM, the koff was 0.000538 s⁻¹ and the kon is 600000 M⁻¹ s⁻¹.

The target of a further test is T2, human GPC3-his tag protein. As to the kind of experiment: SPR Biacore 8K, mAb captured, affinity ranking. On the procedure:
To evaluate antigen binding activity, the chimeric antibody's affinity was measured by Biacore 8K. A serial dilution of human GPC3-his tag protein was injected over captured chimeric antibody 52H5D3B8-6 #-VH+VL for 3 mins at a flow rate of 30 μl/min. The antigen was allowed to dissociate for 720 s. Among the multi detection doses, two concentrations with most close affinity to the chimeric antibody's affinity were chosen for the 16 humanized antibodies' affinity detection.
Consider B1, for which the affinity, expressed as Kd, was 0.721 nM; the koff is 0.000514 s⁻¹; the kon is 714000 M⁻¹ s⁻¹.
B2 returned a Kd of 0.725 nM, a koff of 0.000516 s⁻¹ and a kon of 711000 M⁻¹ s⁻¹.
Molecule B3 yielded a Kd of 0.857 nM, a koff of 0.000593 s⁻¹ and a kon of 692000 M⁻¹ s⁻¹.
The corresponding values for B4 are 0.847 nM, 0.000601 s⁻¹ and 709000 M⁻¹ s⁻¹.
The molecule B5 registered a Kd of 1.01 nM, a koff of 0.000646 s⁻¹ and a kon of 643000 M⁻¹ s⁻¹.
The corresponding values for B6 are 1.05 nM, 0.000674 s⁻¹ and 642000 M⁻¹ s⁻¹.

The next test concerns the target T1, human GPC3 on cells. Briefly: FACS, GPC3-CHOK1 cells. This is another data set of the same source. On the procedure:
as §1, with “CHOK1” for “CHOK1 cells, HEPG2 cells, Hep3B”, “GPC3-CHOK1” for “GPC3-CHOK1 cells, HEPG2 cells, Hep3B”, “As different plates might affect the EC50 of 52H5D3B8-VH+VL, the 12” for “The 16”
With B7, the half-maximal effective concentration (EC50) was determined as 0.0338 µg/mL.
Still for that read-out and setting: under B8 stands 0.0572 µg/mL; under B9, 0.0544 µg/mL; under B10, 0.0509 µg/mL.
B11: it took 0.0324 µg/mL to reach a half-maximal effect (EC50).

Another test has as its target T1, human GPC3 on cells. As to the kind of experiment: FACS, Huh-7 cells. This is another data set of the same source. On the procedure: as §1, with “CHOK1” for “CHOK1 cells, HEPG2 cells, Hep3B”, “GPC3-CHOK1” for “GPC3-CHOK1 cells, HEPG2 cells, Hep3B”, “As different plates might affect the EC50 of 52H5D3B8-VH+VL, the 12” for “The 16”
As to B7, the EC50 is 0.0195 µg/mL.
The same measure, in the same setting: the same measure for B8: 0.0348 µg/mL; for B9: 0.0402 µg/mL; for B10: 0.0295 µg/mL.
The same measure, in the same setting: under B11 stands 0.0196 µg/mL.

In the next test the target is T1, human GPC3 on cells. As to the kind of experiment: FACS, GPC3-CHOK1 cells. This is another data set of the same source. How it is done: Cell-based binding: FACS was used to evaluate the binding activity of chimeric mAbs (18C1D9, 52H5D3B8, 163E7D12, 172B4E9, 152E9F7 and 171F9C5) with comparison to a known GPC3 antibody GC33 (Chugai Pharmaceutical) on human GPC3 over-expressed CHOK1 cells.
Briefly, GPC3-CHOK1 cells were washed by FACS buffer and divided to each well with 3-fold serially diluted chimeric mAbs or GC33 mAb starting at 5 μg/mL at 4° C. for 40 mins. […] Samples were washed twice with FACS buffer.
With B12, a half-maximal effect (EC50) was put at 0.238 µg/mL.
The molecule B13 returned an EC50 of 0.142 µg/mL.
Still for that read-out and setting: the same measure for B14: 0.17 µg/mL.
On the same count and under the same terms, under B15 stands 0.269 µg/mL.
Same read-out and setting: the same measure for B16: 0.14 µg/mL.

The target in a further test is T2, human GPC3-his tag protein. Briefly: SPR Biacore 8K, mAb captured, affinity ranking. The source holds these as a separate data set. On the procedure:
To evaluate antigen binding activity, the chimeric antibody's affinity was measured by Biacore 8K. Two concentrations with most close affinity to the chimeric antibody's affinity were chosen for the 12 humanized antibodies' affinity detection. Human GPC3-his tag protein was injected over captured antibody for 3 mins at a flow rate of 30 μl/min. The antigen was allowed to dissociate for 720 s.
In turn, B7 came in with a Kd of 5.71 nM, a koff of 0.00163 s⁻¹ and a kon of 285000 M⁻¹ s⁻¹.
For B8, in that order: 4.18 nM, 0.00102 s⁻¹ and 244000 M⁻¹ s⁻¹.
Regarding B9, the affinity, expressed as Kd, was 2.87 nM; the koff is 0.000916 s⁻¹; the kon was found to be 319000 M⁻¹ s⁻¹.
Molecule B10 had a Kd of 2.94 nM, a koff of 0.000961 s⁻¹ and a kon of 327000 M⁻¹ s⁻¹.
For B11, in that order: 4.6 nM, 0.00164 s⁻¹ and 357000 M⁻¹ s⁻¹.

Another test concerns the target T1, human GPC3 on cells. Briefly: FACS, Hep3B cells. On the procedure: as §1
In turn, B1 returned an EC50 of 0.0682 µg/mL.
In the case of B2, the EC50 was 0.0629 µg/mL.
Still for that read-out and setting: the same measure for B3: 0.047 µg/mL.
As to B4, the EC50 came to 0.0511 µg/mL.
Same read-out and setting: the same measure for B5: 0.0565 µg/mL; for B6: 0.0627 µg/mL.
